Data: patent publication US20170145092A1 (CHINA SYNTHETIC RUBBER, published 2017)
Each block holds one binder with its values, some of them ahead of it.

Target: T1, recombinant PLVAP51-442 protein (human, UniProt Q9BX97 51-442)
T1 construct: also called recombinant PLVAP protein; recombinant human PLVAP protein
T1 sequence: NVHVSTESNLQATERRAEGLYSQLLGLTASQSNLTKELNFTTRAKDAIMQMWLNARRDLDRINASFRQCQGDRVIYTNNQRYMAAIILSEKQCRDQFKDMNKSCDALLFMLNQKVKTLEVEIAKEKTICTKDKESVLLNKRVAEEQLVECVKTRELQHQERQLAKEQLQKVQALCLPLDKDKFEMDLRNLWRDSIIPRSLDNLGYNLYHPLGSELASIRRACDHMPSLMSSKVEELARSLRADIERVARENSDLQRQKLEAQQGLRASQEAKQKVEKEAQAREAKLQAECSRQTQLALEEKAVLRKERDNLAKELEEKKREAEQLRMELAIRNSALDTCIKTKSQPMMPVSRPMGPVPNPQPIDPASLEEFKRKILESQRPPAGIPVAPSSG
Test: ANTQ300 quartz crystal microbalance
Procedure: Binding affinities of KFCC-GY4 and KFCC-GY5 anti-PLVAP monoclonal antibodies were measured at the ANT Technology Co., Ltd. (Taipei, Taiwan) using ANTQ300 quartz crystal microbalance technology (Lin S., et al. J Immunol Methods 239:121-124 (2000)).

Kd: 41 nM
B1: KFCC-GY5 monoclonal antibody (antibody, V domains shown)
VH: QVQLQQPGAELVRPGASVKLSCKASGYTFTSNYINWVKQRPGQGLEWIGNIYPSDGFTNYNQKFKDRATLTVDKSSSTAYMQLSSPTSEDSAVYYCTRNFDVWGAGTTVTVSS
VL: DVVMTQTPLSLPVSLGDQASISCRSSQSLVHSNGNTYLQWYLQKPGQSPKLLIYTVSNRFSGVPDRFSGSGSGPDFTLKISRVEAEDLGVYFCSQSTHVPFTFGSGTKLEIK
notes: Mouse monoclonal antibody from a hybridoma, purified by Protein G; also called KFCC-GY5 mAb; KFCC-GY5 monoclonal anti-PLVAP antibody

Kd: 60 nM
B2: KFCC-GY4 monoclonal antibody (antibody, V domains shown)
VH: EVQLQQSGAEFVRSGASVKLSCTASGFNIKDYYIHWVKQRPEQGLEWIGWIDPENGDIEYAPKFQGKATMTADTSSNTAYLQFSSLTSEDTAVYYCLYQEGSWGQGTTLTVSS
VL: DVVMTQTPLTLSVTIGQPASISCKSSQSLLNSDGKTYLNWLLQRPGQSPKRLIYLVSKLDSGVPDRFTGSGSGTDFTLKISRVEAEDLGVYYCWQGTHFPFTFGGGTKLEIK
notes: Mouse monoclonal antibody from a hybridoma, purified by Protein G; also called KFCC-GY4 mAb; KFCC-GY4 monoclonal anti-PLVAP antibody
